Experimental data published in article PMC5102900, “ROS-Mediated Inhibition of S-nitrosoglutathione Reductase Contributes to the Activation of Anti-oxidative Mechanisms” (Frontiers in Plant Science, 2016).

Biological target: the molecule itself
Test: SEC-MALS; size exclusion chromatography (Superdex 200 10/300 GL, 4°C) with static light scattering (right-angle, Viscotek TDA 305, 30°C); 50 mM Tris-HCl pH 8.0, 200 mM NaCl, with 10 mM DTT (reduced sample) or without (sample oxidized by 1 mM H2O2); approximately 1.5 mg/ml, 100 ul applied

Row | Protein | stoichiometry N
1 | Arabidopsis thaliana S-nitrosoglutathione reductase (GSNOR), recombinant His6-GSNOR, reduced (enzyme, UniProt Q96533 1-379, looked up, S-nitrosoglutathione reductase (GSNOR; glutathione-dependent formaldehyde dehydrogenase, class III alcohol dehydrogenase), Arabidopsis thaliana, At5g43940; Expressed from pDEST17 (Gateway); Run in buffer with 10 mM DTT; also called AtGSNOR; GSNO-reductase; source: E. coli BL21 DE3 pLysS, purified (Ni-NTA under reducing condition, followed by Äkta purification); not shown: His6, N-terminal, kept) MATQGQVITCKAAVAYEPNKPLVIEDVQVAPPQAGEVRIKILYTALCHTDAYTWSGKDPEGLFPCILGHEAAGIVESVGEGVTEVQAGDHVIPCYQAECRECKFCKSGKTNLCGKVRSATGVGIMMNDRKSRFSVNGKPIYHFMGTSTFSQYTVVHDVSVAKIDPTAPLDKVCLLGCGVPTGLGAVWNTAKVEPGSNVAIFGLGTVGLAVAEGAKTAGASRIIGIDIDSKKYETAKKFGVNEFVNPKDHDKPIQEVIVDLTDGGVDYSFECIGNVSVMRAALECCHKGWGTSVIVGVAASGQEISTRPFQLVTGRVWKGTAFGGFKSRTQVPWLVEKYMNKEIKVDEYITHNLTLGEINKAFDLLHEGTCLRCVLDTSK | 2
2 | Arabidopsis thaliana S-nitrosoglutathione reductase (GSNOR), recombinant His6-GSNOR, oxidized with 1 mM H2O2 (enzyme, UniProt Q96533 1-379, looked up, oxidized by 1 mM H2O2 (oxidative modifications of cysteine residues; which residues at this concentration is not stated), S-nitrosoglutathione reductase (GSNOR; glutathione-dependent formaldehyde dehydrogenase, class III alcohol dehydrogenase), Arabidopsis thaliana, At5g43940; Same construct as m1, treated with H2O2 (200 ug GSNOR, 1 mM H2O2) and run without DTT; Mass spectrometry at 0.5 and 5 mM H2O2 found reversible and sulfinic or sulfonic modifications on most detected cysteines, among them Cys47 and Cys177; also …) MATQGQVITCKAAVAYEPNKPLVIEDVQVAPPQAGEVRIKILYTALCHTDAYTWSGKDPEGLFPCILGHEAAGIVESVGEGVTEVQAGDHVIPCYQAECRECKFCKSGKTNLCGKVRSATGVGIMMNDRKSRFSVNGKPIYHFMGTSTFSQYTVVHDVSVAKIDPTAPLDKVCLLGCGVPTGLGAVWNTAKVEPGSNVAIFGLGTVGLAVAEGAKTAGASRIIGIDIDSKKYETAKKFGVNEFVNPKDHDKPIQEVIVDLTDGGVDYSFECIGNVSVMRAALECCHKGWGTSVIVGVAASGQEISTRPFQLVTGRVWKGTAFGGFKSRTQVPWLVEKYMNKEIKVDEYITHNLTLGEINKAFDLLHEGTCLRCVLDTSK | 2
